According to patent US20070077603A1 (published 2007):
Values belong to the molecule of their own block, whether it stands above or below them.

Experiments:
[1] = molecular target: FXa/FVa (prothrombinase components) (UniProt P00742); test: cell-based or functional assay
human protein C = molecular target: T1, human protein C (human, UniProt P04070 43-197; P04070 200-461); test: ligand blot from native 10% PAGE, biotin-DIP-FXa, streptavidin-HRP
T1 construct: Control vitamin K-dependent protein on the ligand blot (200 ng)
Experimental: (§1) For ligand blotting, FXa was treated with diisoproylfluorophosphate until >95% of its amidolytic activity was lost and then biotinylated as described (Heeb, et al. (1994) Proc. Natl. Acad. Sci. USA 91, 2728-2732). Blots containing 200 ng of protein S or control proteins were incubated with 3 μg/ml of this DIP-FXa for 1 h, followed by streptavidin-horse radish peroxidase (Pierce), chemiluminescent substrate and film exposure.
(§2) Ligand blotting of DIP-FXa to protein S monomers and dimers - - - Biotin-DIP-FXa could ligand blot to both protein S monomers and dimers, but not to two other vitamin K-dependent proteins (FIG. 3). DIP-FXa ligand blotted to monomers and multimers of protein S on native 10% PAGE, but not to human protein C or recombinant human Gas6. […] Note that protein S no. 1 has few monomers compared to protein S no. 2,and protein S no. 2 is <50% monomeric. (see FIG. 4).

recombinant human Gas6 = molecular target: T2, recombinant human Gas6 (human, UniProt Q14393 49-678, limits assumed); test: as above
T2 construct: Control vitamin K-dependent protein on the ligand blot (200 ng)
T2 sequence (looked up): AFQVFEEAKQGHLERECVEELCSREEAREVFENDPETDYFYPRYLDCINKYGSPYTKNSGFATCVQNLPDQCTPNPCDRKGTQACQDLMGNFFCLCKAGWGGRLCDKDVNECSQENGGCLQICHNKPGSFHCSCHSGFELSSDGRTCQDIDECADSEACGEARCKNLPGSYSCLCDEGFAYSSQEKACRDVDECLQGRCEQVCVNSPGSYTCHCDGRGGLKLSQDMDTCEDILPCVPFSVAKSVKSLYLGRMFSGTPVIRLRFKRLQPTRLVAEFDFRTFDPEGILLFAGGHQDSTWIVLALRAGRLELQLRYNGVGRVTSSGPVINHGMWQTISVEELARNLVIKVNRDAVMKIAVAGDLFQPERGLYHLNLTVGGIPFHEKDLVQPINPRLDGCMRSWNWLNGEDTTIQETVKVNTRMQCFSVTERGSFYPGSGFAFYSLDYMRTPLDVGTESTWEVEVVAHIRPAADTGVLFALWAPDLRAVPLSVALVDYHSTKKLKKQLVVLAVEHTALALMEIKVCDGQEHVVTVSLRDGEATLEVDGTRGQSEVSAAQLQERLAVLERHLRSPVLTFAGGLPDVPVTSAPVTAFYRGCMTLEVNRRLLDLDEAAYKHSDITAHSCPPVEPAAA
Experimental: as §1, §2

[2] = molecular target: FXa/FVa (prothrombinase components) (UniProt P00742 41-179; P00742 235-488; P12259 29-737; P12259 1574-2224); test: cell-based or functional assay
C4b-binding protein = molecular target: T3, C4b-binding protein (human, UniProt P04003 49-597; P20851 18-252); test: complex in hirudin-plasma, Superose-6 gel filtration and immunoblot from native PAGE
T3 construct: Endogenous plasma protein; also called C4BP
T3 sequence (looked up) 1: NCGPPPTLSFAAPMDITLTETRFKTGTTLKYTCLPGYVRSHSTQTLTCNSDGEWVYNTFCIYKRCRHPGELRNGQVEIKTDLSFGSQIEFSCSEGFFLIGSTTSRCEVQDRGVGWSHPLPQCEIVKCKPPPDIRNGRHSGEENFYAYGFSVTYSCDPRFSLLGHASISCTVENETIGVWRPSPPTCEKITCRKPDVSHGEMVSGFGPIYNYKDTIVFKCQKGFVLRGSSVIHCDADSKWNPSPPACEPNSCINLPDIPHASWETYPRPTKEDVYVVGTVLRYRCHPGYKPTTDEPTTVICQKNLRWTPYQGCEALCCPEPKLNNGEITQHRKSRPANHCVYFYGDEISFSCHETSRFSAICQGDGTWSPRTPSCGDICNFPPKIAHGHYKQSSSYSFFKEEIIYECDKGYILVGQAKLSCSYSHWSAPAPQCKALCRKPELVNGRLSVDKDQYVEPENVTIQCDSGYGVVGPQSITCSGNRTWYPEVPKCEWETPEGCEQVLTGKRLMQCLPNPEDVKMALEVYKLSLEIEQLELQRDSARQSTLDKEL
T3 sequence (looked up) 2: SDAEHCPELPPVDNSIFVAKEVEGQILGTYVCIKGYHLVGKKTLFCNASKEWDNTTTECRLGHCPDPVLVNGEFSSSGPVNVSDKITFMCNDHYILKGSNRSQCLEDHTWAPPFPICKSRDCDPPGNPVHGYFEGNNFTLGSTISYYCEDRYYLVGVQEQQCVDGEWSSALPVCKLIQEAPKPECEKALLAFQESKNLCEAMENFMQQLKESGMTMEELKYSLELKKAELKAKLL
Experimental: Gel filtration - - - Purified protein S preparations or hirudin-plasma (200 μl ) were fractionated on a 1×30 cm Superose-6 HR column using Fast Performance Liquid Chromatography (Amersham-Pharmacia, Piscattaway, N.J.) at a flow rate of 0.4 ml/min in Hepes-buffered saline (HBS). Hirudin and citrated plasmas (300 ul) were each mixed with 700 μl of 50 mM benzamidine and fractionated on a 1.6×60 cm Sephacryl-300 column at a flow rate of 0.4 ml/min in Tris-buffered saline. Fractions were analyzed for protein S antigen by ELISA, for protein S multimers by native PAGE, and for PS-direct. ELISAs were also performed on the fractions for FV, FX, and C4BP antigens
Fractionation of plasma - - - When hirudin-plasma was gel-filtered on Superose-6 (FIG. 8A), forms that could be identified by immunoblotting from native PAGE were PS-C4BP complexes (fractions 31-39), followed by putative protein S multimers of three types (arrows), and monomeric protein S (fractions 47-54). A smeared band near the void volume marked with ? […] The original quantity of multimers may have been greater than seen in FIG. 8A, since there was evidence of dissociation to monomer in most fractions. […]

Chain of FXa/FVa (prothrombinase components) (UniProt P00742 41-179; P00742 235-488; P12259 29-737; P12259 1574-2224) (P12259 29-737 limits assumed, chain 3 of 2): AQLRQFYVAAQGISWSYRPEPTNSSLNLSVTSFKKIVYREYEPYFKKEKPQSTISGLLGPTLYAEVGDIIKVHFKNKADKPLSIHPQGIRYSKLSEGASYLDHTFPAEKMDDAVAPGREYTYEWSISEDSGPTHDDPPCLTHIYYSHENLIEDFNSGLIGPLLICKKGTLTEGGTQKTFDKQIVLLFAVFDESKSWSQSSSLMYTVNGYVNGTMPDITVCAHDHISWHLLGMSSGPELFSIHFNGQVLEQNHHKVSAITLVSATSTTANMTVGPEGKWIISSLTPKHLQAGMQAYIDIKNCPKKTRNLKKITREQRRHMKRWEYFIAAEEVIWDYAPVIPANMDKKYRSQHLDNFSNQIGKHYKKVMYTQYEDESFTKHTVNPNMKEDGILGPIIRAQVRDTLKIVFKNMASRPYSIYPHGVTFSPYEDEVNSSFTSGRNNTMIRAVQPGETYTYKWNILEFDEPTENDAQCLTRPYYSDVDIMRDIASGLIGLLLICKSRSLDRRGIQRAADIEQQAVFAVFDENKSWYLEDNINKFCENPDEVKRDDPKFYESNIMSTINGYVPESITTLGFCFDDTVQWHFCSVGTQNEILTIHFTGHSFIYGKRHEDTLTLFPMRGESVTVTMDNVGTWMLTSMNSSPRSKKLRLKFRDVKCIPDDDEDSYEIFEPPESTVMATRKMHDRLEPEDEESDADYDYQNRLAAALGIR
Chain of FXa/FVa (prothrombinase components) (UniProt P00742 41-179; P00742 235-488; P12259 29-737; P12259 1574-2224) (P12259 1574-2224 limits assumed, chain 4 of 2): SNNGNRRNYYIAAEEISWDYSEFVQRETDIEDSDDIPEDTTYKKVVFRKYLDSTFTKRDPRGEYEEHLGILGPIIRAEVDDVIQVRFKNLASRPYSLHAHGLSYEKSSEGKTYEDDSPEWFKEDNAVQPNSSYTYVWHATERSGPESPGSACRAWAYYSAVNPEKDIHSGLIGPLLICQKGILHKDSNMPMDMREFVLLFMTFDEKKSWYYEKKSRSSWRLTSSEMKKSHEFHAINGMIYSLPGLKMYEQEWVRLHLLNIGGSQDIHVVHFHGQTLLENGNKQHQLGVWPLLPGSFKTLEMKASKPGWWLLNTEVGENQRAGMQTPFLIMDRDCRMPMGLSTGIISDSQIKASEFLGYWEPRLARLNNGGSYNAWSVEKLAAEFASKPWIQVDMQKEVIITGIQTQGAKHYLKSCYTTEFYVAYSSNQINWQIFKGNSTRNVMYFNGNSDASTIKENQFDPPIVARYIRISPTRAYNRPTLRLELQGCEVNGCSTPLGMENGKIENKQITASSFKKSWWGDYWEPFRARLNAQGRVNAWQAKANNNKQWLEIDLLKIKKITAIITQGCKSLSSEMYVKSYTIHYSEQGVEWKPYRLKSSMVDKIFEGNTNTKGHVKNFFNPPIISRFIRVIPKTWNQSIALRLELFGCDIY
Chain of FXa/FVa (prothrombinase components) (UniProt P00742) (P12259 29-737 limits assumed, chain 3 of 2): as the sequence (P12259 29-737 limits assumed, chain 3 of 2) above
Chain of FXa/FVa (prothrombinase components) (UniProt P00742) (P12259 1574-2224 limits assumed, chain 4 of 2): as the sequence (P12259 1574-2224 limits assumed, chain 4 of 2) above
T1 sequence (P04070 43-197, chain 1 of 2): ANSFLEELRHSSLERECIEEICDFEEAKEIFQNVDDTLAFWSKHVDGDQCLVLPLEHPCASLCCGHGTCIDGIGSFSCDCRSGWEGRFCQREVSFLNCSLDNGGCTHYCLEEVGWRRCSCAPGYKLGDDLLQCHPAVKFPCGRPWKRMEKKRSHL
T1 sequence (P04070 200-461, chain 2 of 2): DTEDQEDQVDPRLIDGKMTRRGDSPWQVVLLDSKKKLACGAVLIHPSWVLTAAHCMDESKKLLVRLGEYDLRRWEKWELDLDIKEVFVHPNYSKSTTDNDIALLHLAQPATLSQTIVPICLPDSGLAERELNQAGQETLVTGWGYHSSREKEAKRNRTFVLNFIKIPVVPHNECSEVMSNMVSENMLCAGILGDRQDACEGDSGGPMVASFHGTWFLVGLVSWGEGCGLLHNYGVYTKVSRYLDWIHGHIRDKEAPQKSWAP

Inhibition of prothrombinase, IC50 @ 25 µM PL, nM (total moles of protein S monomeric subunits) [1]: 113 nM | Inhibition of prothrombinase, IC50 @ 25 µM PL, nM of specific form [1]: 38 nM
Molecule: protein S Trimer (from UniProt P07225 42-676)

Inhibition of prothrombinase, IC50 @ 25 µM PL, nM (total moles of protein S monomeric subunits) [1]: 116 nM | Inhibition of prothrombinase, IC50 @ 25 µM PL, nM of specific form [1]: 46 nM
Molecule: protein S Dimer-Trimer fraction (from UniProt P07225 42-676)

Inhibition of prothrombinase, IC50 @ 25 µM PL, nM (total moles of protein S monomeric subunits) [1]: 111 nM | Inhibition of prothrombinase, IC50 @ 25 µM PL, nM of specific form [1]: 28 nM
Molecule: protein S forms >Trimer (from UniProt P07225 42-676)

binding result (human protein C): no binding | binding result (recombinant human Gas6): no binding
B1: Biotin-DIP-FXa (enzyme)
chain 1: ANSFLEEMKKGHLERECMEETCSYEEAREVFEDSDKTNEFWNKYKDGDQCETSPCQNQGKCKDGLGEYTCTCLEGFEGKNCELFTRKLCSLDNGDCDQFCHEEQNSVVCSCARGYTLADNGKACIPTGPYPCGKQTLER
chain 2: IVGGQECKDGECPWQALLINEENEGFCGGTILSEFYILTAAHCLYQAKRFKVRVGDRNTEQEEGGEAVHEVEVVIKHNRFTKETYDFDIAVLRLKTPITFRMNVAPACLPERDWAESTLMTQKTGIVSGFGRTHEKGRQSTRLKMLEVPYVDRNSCKLSSSFIITQNMFCAGYDTKQEDACQGDSGGPHVTRFKDTYFVTGIVSWGEGCARKGKYGIYTKVTAFLKWIDRSMKTRGLPKAKSHAPEVITSSPLK
modifications: treated with diisoproylfluorophosphate until >95% of its amidolytic activity was lost and then biotinylated; biotinylated (sites not given)
notes: Used at 3 µg/ml as probe in ligand blots; also called FXa treated with diisopropylfluorophosphate and biotinylated

Inhibition of prothrombinase, IC50 @ 25 µM PL, nM (total moles of protein S monomeric subunits) [2]: 119 nM | Inhibition of prothrombinase, IC50 @ 25 µM PL, nM of specific form [2]: 119 nM of specific form
B2: protein S monomers (purified) (other, UniProt P07225 42-676, looked up)
chain: ANSLLEETKQGNLERECIEELCNKEEAREVFENDPETDYFYPKYLVCLRSFQTGLFTAARQSTNAYPDLRSCVNAIPDQCSPLPCNEDGYMSCKDGKASFTCTCKPGWQGEKCEFDINECKDPSNINGGCSQICDNTPGSYHCSCKNGFVMLSNKKDCKDVDECSLKPSICGTAVCKNIPGDFECECPEGYRYNLKSKSCEDIDECSENMCAQLCVNYPGGYTCYCDGKKGFKLAQDQKSCEVVSVCLPLNLDTKYELLYLAEQFAGVVLYLKFRLPEISRFSAEFDFRTYDSEGVILYAESIDHSAWLLIALRGGKIEVQLKNEHTSKITTGGDVINNGLWNMVSVEELEHSISIKIAKEAVMDINKPGPLFKPENGLLETKVYFAGFPRKVESELIKPINPRLDGCIRSWNLMKQGASGIKEIIQEKQNKHCLVTVEKGSYYPGSGIAQFHIDYNNVSSAEGWHVNVTLNIRPSTGTGVMLALVSGNNTVPFAVSLVDSTSEKSQDILLSVENTVIYRIQALSLCSDQQSHLEFRVNRNNLELSTPLKIETISHEDLQRQLAVLDKAMKAKVATYLGGLPDVPFSATPVNAFYNGCMEVNINGVQLDLDEAISKHNDIRAHSCPSVWKKTKNS

binding result (C4b-binding protein): binds
B3: monomeric protein S in plasma (other, human, UniProt P07225 42-676, looked up)
chain: ANSLLEETKQGNLERECIEELCNKEEAREVFENDPETDYFYPKYLVCLRSFQTGLFTAARQSTNAYPDLRSCVNAIPDQCSPLPCNEDGYMSCKDGKASFTCTCKPGWQGEKCEFDINECKDPSNINGGCSQICDNTPGSYHCSCKNGFVMLSNKKDCKDVDECSLKPSICGTAVCKNIPGDFECECPEGYRYNLKSKSCEDIDECSENMCAQLCVNYPGGYTCYCDGKKGFKLAQDQKSCEVVSVCLPLNLDTKYELLYLAEQFAGVVLYLKFRLPEISRFSAEFDFRTYDSEGVILYAESIDHSAWLLIALRGGKIEVQLKNEHTSKITTGGDVINNGLWNMVSVEELEHSISIKIAKEAVMDINKPGPLFKPENGLLETKVYFAGFPRKVESELIKPINPRLDGCIRSWNLMKQGASGIKEIIQEKQNKHCLVTVEKGSYYPGSGIAQFHIDYNNVSSAEGWHVNVTLNIRPSTGTGVMLALVSGNNTVPFAVSLVDSTSEKSQDILLSVENTVIYRIQALSLCSDQQSHLEFRVNRNNLELSTPLKIETISHEDLQRQLAVLDKAMKAKVATYLGGLPDVPFSATPVNAFYNGCMEVNINGVQLDLDEAISKHNDIRAHSCPSVWKKTKNS
notes: mature; also called monomers

Inhibition of prothrombinase, IC50 @ 25 µM PL, nM (total moles of protein S monomeric subunits) [2]: 109 nM | Inhibition of prothrombinase, IC50 @ 25 µM PL, nM of specific form [2]: 54 nM of specific form
B4: protein S dimers (purified) (other, UniProt P07225 42-676, looked up)
chain: ANSLLEETKQGNLERECIEELCNKEEAREVFENDPETDYFYPKYLVCLRSFQTGLFTAARQSTNAYPDLRSCVNAIPDQCSPLPCNEDGYMSCKDGKASFTCTCKPGWQGEKCEFDINECKDPSNINGGCSQICDNTPGSYHCSCKNGFVMLSNKKDCKDVDECSLKPSICGTAVCKNIPGDFECECPEGYRYNLKSKSCEDIDECSENMCAQLCVNYPGGYTCYCDGKKGFKLAQDQKSCEVVSVCLPLNLDTKYELLYLAEQFAGVVLYLKFRLPEISRFSAEFDFRTYDSEGVILYAESIDHSAWLLIALRGGKIEVQLKNEHTSKITTGGDVINNGLWNMVSVEELEHSISIKIAKEAVMDINKPGPLFKPENGLLETKVYFAGFPRKVESELIKPINPRLDGCIRSWNLMKQGASGIKEIIQEKQNKHCLVTVEKGSYYPGSGIAQFHIDYNNVSSAEGWHVNVTLNIRPSTGTGVMLALVSGNNTVPFAVSLVDSTSEKSQDILLSVENTVIYRIQALSLCSDQQSHLEFRVNRNNLELSTPLKIETISHEDLQRQLAVLDKAMKAKVATYLGGLPDVPFSATPVNAFYNGCMEVNINGVQLDLDEAISKHNDIRAHSCPSVWKKTKNS
